One block for each molecule: values may come before it.
Experiments:
[1] = system: Tie-2 phosphorylation (Ang-2-mediated) in HUVECs; assay: Inhibition of Ang-2-mediated Tie-2 phosphorylation in FOXO1-adenovirus infected HUVECs; type: cell-based, human; conditions: antibody 0.5 μg/ml
Description: Further, the inventors have shown that infection of HUVECs with an adenovirus encoding FOXO1 results in expression and secretion of Ang-2, followed by activation of Tie-2 phosphorylation (Daly et al. 2006 PNAS 103:15491).
Anti-Ang-2 antibodies were tested for their ability to inhibit Tie-2 phosphorylation. Briefly, 7×10^5 HUVECs (Vec Technologies, Rensselaer, N.Y.) were plated in 6 cm cell culture dishes in 3.5 ml of MCDB131 Complete medium (Vec Technologies, Rensselaer, N.Y.). The following day, the cells were washed with Opti-MEM (Invitrogen Corp., Carlsbad, Calif.) and fed with 2 ml of Opti-MEM. […] Cells were then washed with MCDB131 and fed with 2 ml of MCDB131 containing anti-Ang-2 antibodies at a concentration of 0.5 μg/ml. At twenty hours post infection, cells were lysed and subjected to Tie-2 immunoprecipitation as described by Daly et al., Proc. Natl. Acad. Sci. USA 103:15491-15496 (2006). Immunoglobulin was collected on protein A/G beads (Santa Cruz Biotechnology, Santa Cruz, Calif.) for one hour. Beads were washed with cold lysis buffer and resuspended in SDS sample buffer for analysis by western blot with antibodies specific for phosphotyrosine (Millipore, Billerica, Mass.) or Tie-2. Signals were detected using HRP-conjugated secondary antibodies and ECL reagents (GE Healthcare, Piscataway, N.J.). X-Ray films were scanned and the phospho-Tie-2 and Tie-2 signals were quantified using ImageJ software. The phospho-Tie-2/Tie-2 ratios were used to determine the % inhibition for each anti-Ang-2 antibody (i.e. Percent inhibition=Reduction in phospho-Tie-2/Tie-2 as compared to control).

[2] = system: retinal superficial vasculature; assay: Retinal vascularization in wild-type mice; type: in vivo; conditions: 12.5 mg/kg subcutaneous at P2, retina at P5
Description: (§1) In one set of experiments wild-type mice were used. In another set, mice expressing a human Ang-2 in place of the wild-type mouse Ang-2 (designated “hu-Ang-2 mice”) were used. The mice at two days of age (P2) were injected subcutaneously with either control Fc or with selected anti-Ang-2 antibodies at a dose of 12.5 mg/kg. Three days later (at P5), pups were euthanized, and eyeballs were enucleated and fixed in 4% PFA for 30 minutes. Retinas were dissected, stained with Griffonia simplicifolia lectin-1 for 3 hours or overnight at 4° C. to visualize the vasculature, and flat-mounted on microscope slides. Images were taken using a Nikon Eclipse 80i microscope camera and analyzed using Adobe Photoshop CS3, Fovea 4.0, and Scion 1.63 software.
(§2) Areas of the retina covered with superficial vasculature were measured and used as a readout of antibody activity. The reduction in the size of the vascular areas in mice treated with antibody compared to Fc-treated controls is presented in Table 34. The percent reduction in vascular area reflects the anti-angiogenic potency of the antibody. (N/D=not determined)

[3] = system: retinal superficial vasculature; assay: Retinal vascularization in hu-Ang-2 mice; type: in vivo; conditions: 12.5 mg/kg subcutaneous at P2, retina at P5
Description: as §1, §2

[4] = molecular target: T1, hAng-1-WT binding to hTie-2-mFc (Homo sapiens, UniProt Q15389); assay: Biosensor SPR blocking of hAng-1-WT binding to hTie-2-mFc-ecto surface; type: biochemical; conditions: 10 nM hAng-1-WT
T1 sequence (Q15389 20-498 limits assumed): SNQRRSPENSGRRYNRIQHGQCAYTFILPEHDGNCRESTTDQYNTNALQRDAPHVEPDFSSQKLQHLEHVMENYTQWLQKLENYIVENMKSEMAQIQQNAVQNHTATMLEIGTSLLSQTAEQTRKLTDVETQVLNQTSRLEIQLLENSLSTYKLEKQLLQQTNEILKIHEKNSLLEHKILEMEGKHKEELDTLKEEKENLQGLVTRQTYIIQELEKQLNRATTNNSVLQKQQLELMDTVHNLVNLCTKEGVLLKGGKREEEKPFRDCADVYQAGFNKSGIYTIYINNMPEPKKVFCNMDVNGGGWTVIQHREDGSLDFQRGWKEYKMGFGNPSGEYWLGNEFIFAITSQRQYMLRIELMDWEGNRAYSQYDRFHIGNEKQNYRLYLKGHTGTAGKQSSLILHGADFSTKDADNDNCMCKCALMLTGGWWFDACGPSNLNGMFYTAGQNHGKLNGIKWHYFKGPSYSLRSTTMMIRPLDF
Description: In an effort to further assess the ability of selected anti-hAng-2 antibodies to block the binding of Ang-1 to Tie-2, a biosensor surface plasmon resonance experiment was conducted. In this experiment, a human Tie-2 full-length extracellular domain construct (hTie-2-mFc-ecto) was amine-coupled on a BIACORE™ chip to create a receptor coated surface. Selected anti-hAng-2 antibodies and control constructs, at 1 μM (100-fold excess over antigen), were premixed with 10 nM of hAng-1-WT, followed by 60 minutes incubation at 25° C. to allow antibody-antigen binding to reach equilibrium to form equilibrated solutions. The equilibrated solutions were injected over the receptor surfaces at 5 μL/min for 5 minutes at 25° C. Changes in resonance units (RU) due to the binding of the hAng-1-WT to hTie-2-mFc were determined. An irrelevant peptibody construct with no binding to hAng-1 was included in this experiment to establish the 0% blocking baseline, and a human Tie-2-mFc construct was used as a positive control for blocking. The amount of Ang-1 bound to Tie-2 following antibody preincubation, expressed as a percentage of the amount of Ang-1 bound to Tie-2 following negative control preincubation, is shown in Table 20. (A greater amount of Ang-1 binding to Tie-2 signifies a lower degree of antibody blocking).
(§3) The foregoing experiment was repeated using different amounts of Ang-2 blockers and controls. In particular, a human Tie-2 full-length extracellular domain construct (hTie-2-mFc-ecto) was amine-coupled on a BIACORE™ chip to create a receptor-coated surface. Selected anti-hAng-2 antibodies and control constructs (50 or 150 nM) were mixed with hAng-2-WT (25 nM) followed by 60 minutes incubation at 25° C. to allow antibody-antigen binding to reach equilibrium. The equilibrated solutions were injected over the receptor surfaces at 10 μL/min for 5 minutes at 25° C. To evaluate the ability of the selected anti-hAng-2 antibodies to block Ang-1-WT binding to hTie-2, a similar procedure was followed except the antibodies were tested at three concentrations (50, 100 or 1000 nM) and incubated with 10 nM of hAng-1-WT. Changes in resonance units (RU) due to the binding of the Ang-2-WT or hAng-1-WT to hTie-2-mFc were determined. An irrelevant antibody with no binding to either angiopoietin was included in these experiments to establish the 0% blocking baseline, and a human Tie-2-mFc construct was used as a positive control for blocking. Results are summarized in Tables 21 (hAng-1 applied to a hTie-2 surface) and 22 (hAng-2 applied to a hTie-2 surface).

[5] = molecular target: T2, hAng-2-WT binding to hTie-2-mFc (Homo sapiens, UniProt O15123); assay: Biosensor SPR blocking of hAng-2-WT binding to hTie-2-mFc-ecto surface; type: biochemical; conditions: 25 nM hAng-2-WT
T2 sequence (O15123 19-496): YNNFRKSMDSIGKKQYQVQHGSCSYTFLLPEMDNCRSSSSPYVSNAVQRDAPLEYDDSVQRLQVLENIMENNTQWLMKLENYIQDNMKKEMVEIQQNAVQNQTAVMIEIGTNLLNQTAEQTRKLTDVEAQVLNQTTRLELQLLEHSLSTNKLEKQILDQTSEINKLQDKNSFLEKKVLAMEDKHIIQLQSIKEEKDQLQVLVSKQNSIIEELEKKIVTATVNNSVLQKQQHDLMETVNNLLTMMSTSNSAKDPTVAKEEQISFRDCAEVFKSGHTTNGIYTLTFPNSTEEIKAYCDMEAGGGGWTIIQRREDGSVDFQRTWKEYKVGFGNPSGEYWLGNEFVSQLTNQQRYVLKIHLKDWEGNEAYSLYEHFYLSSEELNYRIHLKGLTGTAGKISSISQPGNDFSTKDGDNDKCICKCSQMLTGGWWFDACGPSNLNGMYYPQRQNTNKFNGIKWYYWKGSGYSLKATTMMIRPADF
Description: as §3

[6] = system: PC3 (Human Prostate Cancer Cell Line) tumors; assay: PC3 mouse tumor model; type: in vivo, NCr nude mice; conditions: PC3, 10 mg/kg intraperitoneal twice per week
Description: Briefly, 5×10^6 PC3 cells in 100 μl of growth factor-reduced Matrigel (BD Biosciences) were injected subcutaneously into the flanks of 6-8 week old male NCr nude mice (Taconic, Hudson, N.Y.). After tumor volumes reached an average of about 200 mm^3, mice were randomized into groups for treatment. […] Tumor volumes were measured twice per week over the course of the experiment and tumor weights were measured upon excision of tumors at the conclusion of the experiment. Averages (mean+/−standard deviation) of tumor weight and growth were calculated for each treatment group. Percent decrease of tumor weight and growth were calculated from comparison to Fc protein measurements.

B1: H1H690P: anti-Ang-2 antibody, HCVR/LCVR SEQ ID NOs 42/44 (antibody, V domains shown)
VH: EVQLVESGGGLVQPGESLRLSCAASGFTFSSYAMSWVRQGPGKGLEWVSSITGSGDTTYYADSVKGRFTISRDNSKNTLYLHMNSLRAEDTAVYYCAKDFLDYSTYLAFDLWGQGTMVTVSS
VL: EIVLTQSPATLSLSPGERATLSCRASQSVSSYLTWYQQKPGQAPRLLSYDASNRATGIPARFSGSGSGTDFTLTISSLEPEDFAVYYCQQRSNWPLTFGGGTKVEIK
Inhibition of Tie-2 phosphorylation [1]: +++ (75-100%) | Inhibition of Tie-2 phosphorylation (in words) [1]: Especially robust inhibition | % Reduction in Vascular Area Relative to Fc Control, Wild-Type Mice [2]: 30.7% | % Reduction in Vascular Area Relative to Fc Control, hAng-2 Mice [3]: 41.5%

Percent of Neg. Ctrl Binding (hAng-1 WT) ([4]; 50 nM antibody or control): 22% | Specific Bound RU (hAng-1 WT) ([4]; 50 nM antibody or control): 70 RU | Percent of Neg. Ctrl Binding (hAng-1 WT) ([4]; 100 nM antibody or control): 13% | Specific Bound RU (hAng-1 WT) ([4]; 100 nM antibody or control): 39 RU | Percent of Neg. Ctrl Binding (hAng-1 WT) ([4]; 1000 nM antibody or control): 0% | Specific Bound RU (hAng-1 WT) ([4]; 1000 nM antibody or control): −47 RU | Percent of Neg. Ctrl Binding (hAng-2 WT) ([5]; 50 nM antibody or control): 35% | Specific Bound RU (hAng-2 WT) ([5]; 50 nM antibody or control): 97 RU | Percent of Neg. Ctrl Binding (hAng-2 WT) ([5]; 150 nM antibody or control): 30% | Specific Bound RU (hAng-2 WT) ([5]; 150 nM antibody or control): 82 RU
B2: hTie-2-mFc: chimeric construct consisting of human Tie-2 conjugated to mouse IgG; positive control for blocking (protein)
chain: MDSLASLVLCGVSLLLSGTVEGAMDLILINSLPLVSDAETSLTCIASGWRPHEPITIGRDFEALMNQHQDPLEVTQDVTREWAKKVVWKREKASKINGAYFCEGRVRGEAIRIRTMKMRQQASFLPATLTMTVDKGDNVNISFKKVLIKEEDAVIYKNGSFIHSVPRHEVPDILEVHLPHAQPQDAGVYSARYIGGNLFTSAFTRLIVRRCEAQKWGPECNHLCTACMNNGVCHEDTGECICPPGFMGRTCEKACELHTFGRTCKERCSGQEGCKSYVFCLPDPYGCSCATGWKGLQCNEACHPGFYGPDCKLRCSCNNGEMCDRFQGCLCSPGWQGLQCEREGIPRMTPKIVDLPDHIEVNSGKFNPICKASGWPLPTNEEMTLVKPDGTVLHPKDFNHTDHFSVAIFTIHRILPPDSGVWVCSVNTVAGMVEKPFNISVKVLPKPLNAPNVIDTGHNFAVINISSEPYFGDGPIKSKKLLYKPVNHYEAWQHIQVTNEIVTLNYLEPRTEYELCVQLVRRGEGGEGHPGPVRRFTTASIGLPPPRGLNLLPKSQTTLNLTWQPIFPSSEDDFYVEVERRSVQKSDQQNIKVPGNLTSVLLNNLHPREQYVVRARVNTKAQGEWSEDLTAWTLSDILPPQPENIKISNITHSSAVISWTILDGYSISSITIRYKVQGKNEDQHVDVKIKNATIIQYQLKGLEPETAYQVDIFAENNIGSSNPAFSHELVTLPESQAPADLGGGKGPGEPRGPTIKPCPPCKCPAPNLLGGPSVFIFPPKIKDVLMISLSPIVTCVVVDVSEDDPDVQISWFVNNVEVHTAQTQTHREDYNSTLRVVSALPIQHQDWMSGKEFKCKVNNKDLPAPIERTISKPKGSVRAPQVYVLPPPEEEMTKKQVTLTCMVTDFMPEDIYVEWTNNGKTELNYKNTEPVLDSDGSYFMYSKLRVEKKNWVERNSYSCSVVHEGLHNHHTTKSFSRTPGK

B3: H1H724N: anti-Ang-2 antibody (724N) cloned onto human IgG1 (antibody, V domains shown)
VH: QVQLVESGGGVVQPGRSLRLSCAASGFTLSNYGMHWVRQAPGKGLEWVAVIWHDGSNTYYADSVKGRFTISRDNSKNTLYLQMNSLRAEDTAVYYCTREGLDFWSGYYPNWFDPWGQGTLVTVSS
VL: DIQMTQSPSSLSASVGDRVTITCRASQGIRNDLGWYQQKPGKAPKRLIYAASNLQGGVPSRFSGSGSGTEFTLTISSLQPEDFAAYYCLQHNIYPLTFGGGTKVEIK
Avg Tumor Weight ([6]; approximately three weeks, mean ± SD): 0.55 ± 0.07 g | Avg Tumor Growth ([6]; mean ± SD): 392 ± 169 mm^3 | % Decrease in Tumor Growth ([6]; vs Fc protein): 23% | % Decrease in Tumor Weight ([6]; vs Fc protein): 17% | % Reduction in Vascular Area Relative to Fc Control, Wild-Type Mice [2]: 32.2% | % Reduction in Vascular Area Relative to Fc Control, hAng-2 Mice [3]: 33.2%

Source: patent US9926369B2, “Methods for treating hepatocellular cancer by administering an anti-Ang-2 antibody” (Regeneron Pharmaceuticals, Inc., priority 2009, dated 2018)
